B1: PR199_00255 (antibody, V domains shown)
VH: QVQLVESGGGVVQPGRSLRLSCAASGFTFSTYGMHWVRQAPGKGLEWVAVIWYNGINKHYADSVKGRFTISRDNSKNTLYLQMSSLRVEDTAVYYCARDWGTLTTLFDFWGQGTLVTVSS
VL: DIQMTQSPSSLSASVGERATITCRASQSISSHLNWYQQKPGKAPKFLIYGASSLQSGVPSRFSGSGSGTDFTLTISSLQPEDFATYYCQQSYSTPPWTFGQGTKVEIK
notes: also called IMM20279; PR190_00255
B2: PR201_00151 (antibody, V domains shown)
VH: RVTLRESGPALVKPTQTLTLTCTFSGFSLNTSGMCVSWIRQPPGKALEWLARIDWDDDKYYSTSLETRLTISKDTSKNQVVLTMTNLDPVDTGTYYCARISIQSRGGGADYWGQGTLVTVSS
VL: DIQMTQSPSSLSASVGDRVTITCRASQSISSYLHWYQQKSGKAPKLLIFVASTLQSGVPSRFSGSGSGTDFTLTISSLQPEDSAAYYCQQSYSPPWTFGQGTKVEIK
B3: PR194_00068 (antibody, V domains shown)
VH: EVQLLESGGGLVQPGGSLRLSCSASGFTFTNYAMSWVRQAPGKGLEWVSTISGSGGSTYYADSVKGRFTISRDNSKSTLFLQMNSLRAEDTAIYYCANSGPTGDLDYWGQGTLVTVSS
VL: SYELTQPPSVSVSPGQTTLSLTCSGDKLGNKYVCWYQQKPGQSPVLVIYQDTKRPSGIPERVSGSNSGDTATLTISGTQAMDEADYYCQAWDSSTAVFGGGTKLTVL
B4: PR194_00292 (antibody, V domains shown)
VH: QVQLQQWGAGLLKPSETLSLTCAVYGGSLSGYYWSWIRQPPGKGLEWIGEINHSGSTNHNPSLKSRVSISVDTSKNQFSLKLSSVTAADTAVYYCARAWKYSSSWYSGGIYYGMDVWGQGTTVTVSS
VL: QSALTQPASVSGSPGQSITISCSGTSSDVGSYNLVSWYQQHPGKAPKLMIYEGTKRPSGVSNRFSSSKSGNTASLTISGLQAEDEADYYCCSYAGFSTWVFGGGTKLTVL
B5: PR194_00364_b (antibody, V domains shown)
VH: EVQLVESGGGLVKPGGSLRLSCSASGFTFTTYTMNWVRQAPGKGLEWVSSISSTGLSIYYADSVKGRFTISRDNAKNSLYLQMNSLRAEDTAVYYCARDPSPTTIYYYYYMDVWGKGTTVTVSS
VL: QSALTQPASVSGSPGQSITISCTGTSSDVGTYNLVSWYQHYPGKAPKLIIYEVSKRPSGVSDRFSGSKSGNTASLTISGLQAEDEADYYCCSYAGSTTGYVVFGGGTKLTVL
B6: PR194_00453 (antibody, V domains shown)
VH: QLQLQESGPGLVKPSETLSLTCTVSGGSISSSSSYWGWFRQPPGKGLGWIRSIYYSGSTYYNPSLKSRVTMSVDTSKNQFSLKLSSVTAADTAVYYCARAKFSVWDNYRYPFDYWGQGILVTVSS
VL: not shown
B7: PR196_00413_a (antibody, V domains shown)
VH: QVQLVQSGAEVKKPGSSVKVSCKASGGTFSSYAITWVRQAPGQGLEWMGGIIPIFGTANYAQKFQGRVTITADESTSTAYMELSSLRSEDTAVYYCASDYGDSPLGYWGQGTLVTVSS
VL: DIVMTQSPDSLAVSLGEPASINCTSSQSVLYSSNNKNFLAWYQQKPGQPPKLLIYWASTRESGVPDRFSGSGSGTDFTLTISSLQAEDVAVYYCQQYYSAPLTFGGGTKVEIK
B8: PR197_00647 (antibody, V domains shown)
VH: QVQLVESGGGVVQPGRSLRLSCAASGFTFSSYAMHWVRQAPGKGLQWVTLISYDGGDKYYADSVRGRFTISRDNSKNTLYLQMNSLRTEDTAVYYCARDRPQTGDWFPPIPTGVLDVWGQGTTVTVSS
VL: DIQMTQSPSSLSASVGDRVTITCRASQGISNYLAWFQQKPGKAPKSLIYAASSLQSGVPSRFSGSESGTDFTLTISSLQPEDFATYYCQQYHSYPITFGQGTRLEIK

How the values were obtained:
[1] = target: T1, SARS-CoV-2 Spike S1 domain D614G (SARS-CoV-2, UniProt P0DTC2 16-685); assay: HTRF, soluble S1 construct
T1 construct: domain: S1

[2] = target: T2, SARS-CoV-2 Spike S1 domain A222S, D614G (SARS-CoV-2, UniProt P0DTC2 16-685); assay: HTRF, soluble S1 construct
T2 construct: domain: S1; also called Spanish (A222S, D614G)

[3] = target: T3, SARS-CoV-2 Spike S1 domain K417N, E484K, N501Y, D614G (SARS-CoV-2, UniProt P0DTC2 16-685); assay: HTRF, soluble S1 construct
T3 construct: domain: S1; also called S. African (K417N, E484K, N501Y, D614G); B.1.351

[4] = target: T4, SARS-CoV-2 Spike S1 domain ΔHV69/70, ΔY144, N501Y, A570D, D614G, P681H (SARS-CoV-2, UniProt P0DTC2 16-685); assay: HTRF, soluble S1 construct
T4 construct: domain: S1; also called U.K. (B.1.1.7); DHV69/70, DY144, N501Y, A570D, D614G, P681H

[5] = target: T5, SARS-CoV-2 Spike S1 domain ΔHV69/70, Y453F, D614G (SARS-CoV-2, UniProt P0DTC2 16-685); assay: HTRF, soluble S1 construct
T5 construct: domain: S1; also called Denmark (ΔHV69/70, Y453F, D614G); DHV69/70, Y453F, D614G

[6] = target: T6, SARS-CoV-2 Spike RBD N439K (SARS-CoV-2, UniProt P0DTC2 319-541); assay: HTRF, soluble RBD construct
T6 construct: domain: RBD

[7] = target: T7, SARS-CoV-2 Spike RBD E406Q (SARS-CoV-2, UniProt P0DTC2 319-541); assay: HTRF, soluble RBD construct
T7 construct: domain: RBD

[8] = target: T8, SARS-CoV-2 Spike RBD K417N (SARS-CoV-2, UniProt P0DTC2 319-541); assay: HTRF, soluble RBD construct
T8 construct: domain: RBD

[9] = target: T9, SARS-CoV-2 Spike RBD N501Y (SARS-CoV-2, UniProt P0DTC2 319-541); assay: HTRF, soluble RBD construct
T9 construct: domain: RBD

[10] = target: T10, SARS-CoV-2 Spike RBD A352S (SARS-CoV-2, UniProt P0DTC2 319-541); assay: HTRF, soluble RBD construct
T10 construct: domain: RBD

[11] = target: T11, SARS-CoV-2 Spike RBD A475V (SARS-CoV-2, UniProt P0DTC2 319-541); assay: HTRF, soluble RBD construct
T11 construct: domain: RBD

[12] = target: T12, SARS-CoV-2 Spike RBD Y453F (SARS-CoV-2, UniProt P0DTC2 319-541); assay: HTRF, soluble RBD construct
T12 construct: domain: RBD

Row | Binder | fold over background [1] [fold over background] | fold over background [2] [fold over background] | fold over background [3] [fold over background] | fold over background [4] [fold over background] | fold over background [5] [fold over background] | fold over background [6] [fold over background] | fold over background [7] [fold over background] | fold over background [8] [fold over background] | fold over background [9] [fold over background] | fold over background [10] [fold over background] | fold over background [11] [fold over background] | fold over background [12] [fold over background]
1 | B1 | 11.2 | 9.3 | 9.48 | 7.29 | 9.63 | 6.09 | 10.9 | 7.29 | 6.15 | 8.26 | 7.64 | –
2 | B2 | 7.25 | 7.29 | 1.05 | 4.22 | 6.53 | 6.03 | 8.3 | 1.09 | 6.16 | 7.06 | 5.7 | 5.48
3 | B3 | – | – | – | – | – | 1.06 | – | – | – | – | – | –
4 | B4 | 1.06 | 1.02 | 2.26 | 2.37 | 2.59 | 1.06 | 0.967 | 1.03 | 0.996 | 0.94 | 1.02 | 0.974
5 | B5 | – | – | – | – | – | – | – | – | – | 0.917 | – | –
6 | B6 | 9.55 | 9.21 | 9.57 | 9.06 | 9.45 | 1.05 | 0.99 | 1.1 | 1.03 | 1.11 | 1.06 | 0.987
7 | B7 | 9.92 | 8.74 | 9 | 6.39 | 9.68 | 1.07 | 1.02 | 1.06 | 1.08 | 1.07 | 1.01 | 1.06
8 | B8 | 8.3 | 9.54 | 7.72 | 1.1 | 1.07 | 1.04 | 1.03 | 1.03 | 1.06 | 1.04 | 0.999 | 1.11
